Measured values published in PMC4705661, “Tetramerization and interdomain flexibility of the replication initiation controller YabA enables simultaneous binding to multiple partners” (Nucleic Acids Research, 2015).

Experiments:
[1] = biological target: the molecule itself; experiment: crystal structure; form I crystals, space group P3(2)21, 2.7 Å; 20% PEG 3350, 100 mM Bis-Tris propane pH 6.5, 200 mM potassium thiocyanate
[2] = biological target: the molecule itself; experiment: SEC-MALS; YabA1-58 and YabA70-119 loaded at 5 mg.ml^-1 (100 μl) on a Superdex 75 column; 50 mM Tris pH 8.0, 150 mM NaCl
[3] = biological target: the molecule itself; experiment: SEC-MALS; YabA loaded at 2.5 mg.ml^-1 (100 μl) on Superdex 200 HR 10/30; 50 mM Tris pH 8.0, 150 mM NaCl

B1: YabA^1–62 (crystallized N-terminal domain fragment) (domain or fragment, B. subtilis, UniProt P37542 1-62, looked up)
chain: MDKKELFDTVINLEEQIGSLYRQLGDLKQHIGEMIEENHHLQLENKHLRKRLDDTTQQIEKF
notes: YabA, B. subtilis strain 168; form I crystals (2.7 Å) grew from the purified YabA/DnaN complex, form II crystals from YabA alone; two chains per asymmetric unit, tetramer by crystal symmetry; also called YabA NTD; YabA-NTD; source: E. coli BL21 (DE3), purified; fragment left by proteolysis during crystallization
For B1, the “stoichiometry N” value [1] was 4.

B2: YabA^1–58 (domain or fragment, B. subtilis, UniProt P37542 1-58, looked up)
chain: MDKKELFDTVINLEEQIGSLYRQLGDLKQHIGEMIEENHHLQLENKHLRKRLDDTTQQ
notes: YabA, B. subtilis strain 168, residues 1-58; tag removed by HRV 3C protease; also called NTD fragment; N-terminal fragment YabA1-58; not shown: His-tag, N-terminal, cleaved
With B2 the “stoichiometry N” value [2] was 4.

B3: YabA (full length, purified recombinant) (natural protein)
chain: not shown
notes: expressed from pET151/D-TOPO; also called recombinant YabA; full length YabA; source: E. coli BL21 (DE3), purified (HisTrap, TEV cleavage, Superdex 200)
With B3 the “stoichiometry N” value [3] was 4.
